Assays:
[1] = biological target: human CD47 on cells (SHP-77 tumor cells, human red blood cells, CCRF-CEM cells, human CD47 CHO-K1 stable cell line) (human) (UniProt Q08722); test: flow cytometry on human CD47 CHO-K1 cells; plateau not reached, not accurate
[2] = biological target: human CD47 on cells (SHP-77 tumor cells, human red blood cells, CCRF-CEM cells, human CD47 CHO-K1 stable cell line) (human) (UniProt Q08722); test: cell-based or functional assay
[3] = biological target: human CD47 on cells (SHP-77 tumor cells, human red blood cells, CCRF-CEM cells, human CD47 CHO-K1 stable cell line) (human) (UniProt Q08722); test: flow cytometry on human RBCs
[4] = biological target: cynomolgus CD47 on CHO-K1 stable cell line (cynomolgus); test: flow cytometry on cynomolgus CD47 CHO-K1 cells; plateau not reached, not accurate
[5] = biological target: human CD47 on cells (SHP-77 tumor cells, human red blood cells, CCRF-CEM cells, human CD47 CHO-K1 stable cell line) (human) (UniProt Q08722); test: flow cytometry on SHP-77 cells

EC50 [1]: 10.4 nM | CCRF-CEM phagocytosis EC50 [2]: 0.4 nM | CCRF-CEM phagocytosis, Phagocytosis (%) [2]: 36.6% | EC50 [3]: 9.7 nM | Fitted maximal MFI [3]: 644 MFI | EC50 [4]: 9.3 nM | EC50 [5]: 4.9 nM | Fitted maximal MFI [5]: 10500 MFI
Substance: TTI-622 fusion protein (Fc fusion)

From US20260132197A1
